The subject of one data set is N[C@@H](CC(=O)O)C(=O)O. The experiment in a line: purified protein. The note with it: 0.1 M phosphate pH 7.0, 37 °C, L-aspartate 0.5-100 mM, apparent parameters. Type of data set: biochemical, Tribolium castaneum.
The target of data set [1] is T1, TcPanD (PLP-dependent L-aspartate-α-decarboxylase) (Tribolium castaneum, UniProt A7U8C7).
T1 sequence (A7U8C7 1-540): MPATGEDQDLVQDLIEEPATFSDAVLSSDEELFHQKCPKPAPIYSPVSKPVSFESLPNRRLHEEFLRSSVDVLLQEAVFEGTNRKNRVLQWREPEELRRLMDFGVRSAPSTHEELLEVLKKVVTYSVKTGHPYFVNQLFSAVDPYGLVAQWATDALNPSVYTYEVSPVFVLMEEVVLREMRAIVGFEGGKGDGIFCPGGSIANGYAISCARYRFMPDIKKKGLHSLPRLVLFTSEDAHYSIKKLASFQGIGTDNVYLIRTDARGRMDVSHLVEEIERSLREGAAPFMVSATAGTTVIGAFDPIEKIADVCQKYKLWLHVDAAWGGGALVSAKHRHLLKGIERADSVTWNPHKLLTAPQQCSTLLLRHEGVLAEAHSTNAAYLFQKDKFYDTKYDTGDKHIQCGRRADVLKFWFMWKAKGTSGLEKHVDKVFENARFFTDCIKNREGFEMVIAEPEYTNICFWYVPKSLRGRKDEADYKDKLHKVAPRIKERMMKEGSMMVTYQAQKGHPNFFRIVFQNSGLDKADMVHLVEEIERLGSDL
The data set can be described thus: enzyme activity versus added PLP. The settings on record: 0.1 M phosphate pH 7.0, 37 °C, L-aspartate substrate. Format: biochemical.

Substrate in the data set “purified protein”: N[C@@H](CC(=O)O)C(=O)O
The experiment in a line: purified protein. The note with it: 0.1 M phosphate pH 7.0, 37 °C, L-aspartate 0.5-100 mM, apparent parameters.

The values below come from PMC7143960, “Protein Engineering of a Pyridoxal-5′-Phosphate-Dependent L-Aspartate-α-Decarboxylase from Tribolium castaneum for β-Alanine Production” (Molecules, 2020).

For “TcPanD (PLP-dependent L-aspartate-α-decarboxylase) (Tribolium castaneum; K305S/R98H)”, in the data set on N[C@@H](CC(=O)O)C(=O)O, the Km was found to be 1.23 mM, the Vmax was 7.05 µmol/min/mg, the kcat worked out at 7.64 s⁻¹ and the kcat/Km was 6210 M⁻¹ s⁻¹.

For `Cc1ncc(COP(=O)(O)O)c(C=O)c1O` [pyridoxal 5’-phosphate], the “enzyme activity versus added PLP” value in data set [1] was “the enzymatic activities of the two proteins reached the highest levels under the treatment”.

B1: TcPanD (PLP-dependent L-aspartate-α-decarboxylase) (Tribolium castaneum) (protein)
chain: T1 sequence (A7U8C7 1-540)
As for B1, in the data set “purified protein”, the Km was 1.35 mM, the Vmax turned out to be 2.88 µmol/min/mg, the kcat was 3.12 s⁻¹ and the kcat/Km worked out at 2310 M⁻¹ s⁻¹.

Broadly, the Km is the concentration of substrate that gives half-maximal velocity. What is called Vmax is the rate approached at saturating substrate. For orientation: kcat means the number of substrate molecules converted per active site and unit of time at saturation. As usually defined, the kcat/Km is the second-order rate constant that governs catalysis at low substrate concentration.
